Reference: publication PMC9104551

Tested on: XylR (ROK family transcriptional regulator) (Paenibacillus polymyxa ATCC842)
Assay: EMSA
Settings: Chemiluminescent EMSA Kit (Beyotime), biotinylated PCR probes; XylR 0.02-0.1 g/L (protein:probe 20.9-104.4) for BST/DTE; buffer, pH, temperature not stated

| Substance | binding signal [% bound] |
| --- | --- |
| -2G (A/T to G/C outside site) | 60.8 |
| -2T (A/T to T/A outside site) | 65.4 |
| -1T (A/T to T/A outside site) | 61.3 |
| BST 1C (A/T to C/G) | 19.8 |
| BST 17A (G71A) | 1.9 |
| BST 1G (A/T to G/C) | 18.8 |
| BST 1T (A/T to T/A) | 30 |
| BST 17T (G71T) | 52.1 |
| -1C (A/T to C/G outside site) | 50.8 |
| -1G (A/T to G/C outside site) | 64.5 |
| BST (full predicted site) | 70 |
| BST 17C (G71C) | 63.5 |
| -2C (A/T to C/G outside site) | 57.6 |
